Source: patent US7485710B2, “Nucleic acids coding for adhesion factor of group B streptococcus, adhesion factors of group B streptococcus and further uses thereof” (priority 2002, dated 2009)
The star is where a group is joined. Biotin = O=C1N[C@H]2[C@H](CS[C@H]2CCCCC(=O)*)N1; Ahx = NCCCCCC(=O)O

Assays:
[1] = test system: IgG and IgA antibodies in sera from patients infected with GBS; experiment: Peptide ELISA of FbsA peptides with human sera; assay type: binding; conditions: five sera, dilutions 1:200 and 1:1,000
Source text: The 5 biotinylated peptides (wild type <1>: GNVLERRQRDAENRSQ SEQ ID No. 113; alanine mutant peptides: <2> GAVLERRQRDAENRSQ SEQ ID No. 207, <3> GNALERRQRDAENRSQ SEQ ID No. 208, <4> GNVLEARQRDAENRSQ SEQ ID No. 211, <5> GNVLERAQRDAENRSQ SEQ ID No. 212; see also FIG. 11) were coated on Streptavidin-coated ELISA plates and analysed using 5 sera from patients infected with GBS. The patient sera were applied in a dilution of 1:200 and 1:1,000. IgG (A) and IgA (B) antibodies were detected with secondary anti-human antibodies coupled to Horse Radish Peroxidase and ABTS as substrate.
Biotin-labeled peptides were coating on Streptavidin ELISA plates (EXICON) at 10 μg/ml concentration according to the manufacturer's instructions. Sera were tested at two dilutions, 200× and 1,000×.
Highly specific Horse Radish Peroxidase (HRP)-conjugated anti-human IgG or anti-human IgA secondary antibodies (Southern Biotech) were used according to the manufacturers' recommendations (dilution: 1,000×). Antigen-antibody complexes were quantified by measuring the conversion of the substrate (ABTS) to colored product based on OD405nm readings in an automated ELISA reader (TECAN SUNRISE). Following manual coating, peptide plates were processed and analyzed by the Gemini 160 ELISA robot (TECAN) with a built-in reader (GENIOS, TECAN).

human fibrinogen = target: T1, human fibrinogen (Homo sapiens, UniProt P02671+P02675+P02679); experiment: Western blot of fusion proteins for fibrinogen binding; conditions: His-tagged fusion proteins separated by SDS-PAGE, blotted, probed with human fibrinogen
T1 construct: purchased Sigma-Aldrich
Source text: The fibrinogen binding activity of the three proteins encoded by different constructs are indicated below the schematic FbsA drawing.
The fusion proteins were size-separated by SDS-PAGE, transferred onto a nitrocellulose membrane and tested for fibrinogen binding by Western blotting. Bound fibrinogen was detected with rabbit anti-fibrinogen antibodies, followed by peroxidase-labelled goat anti-rabbit antibodies, and visualized by chemiluminescence. PabC and Gbs0851: full-length fusion proteins; PabC-N: N-terminal 388 amino acids of PabC; PabC-C: C-terminal 222 amino acids of PabC. (C) Identification of the FbsA and PabC-binding sites within human fibrinogen by Western blot analysis. […] Bound fusion proteins were detected with mouse anti-HisTag antibodies, followed by peroxidase-conjugated goat anti-mouse IgG fab fragments and visualized by chemiluminescence. […]
Membranes that had been blocked overnight were incubated for 1 h with 2 μg/ml of human fibrinogen. […] After three washes with PBST and two washes with PBS, bound fibrinogen was detected by chemiluminescence using the ECL-kit (Amersham/Pharmacia). In control experiments, no cross-reactivity of the used antibodies with the immobilized proteins and peptides was detected.

GBS 6313 = experiment: Competitive inhibition of 125I-labelled fibrinogen binding to GBS; parameters: species or system Streptococcus agalactiae; conditions: increasing concentrations of purified fusion protein
Experimental: FbsA-9 differs from FbsA-19 in that it contains only 9 repeats in its repeat domain. The binding assay was performed with ^125I-labelled fibrinogen in the presence of different concentrations of each fusion protein. Each experiment was performed at least in triplicate.
Each experiment was performed at least in triplicate.
Purified human fibrinogen was radiolabelled with ^125I, using the chloramin T method (Hunter and Greenwood, 1962). Binding of labelled fibrinogen to GBS was performed essentially as described by Chhatwal et al. (Chhatwal, Muller, and Blobel, 1983). Briefly, overnight cultures of GBS were pelleted by centrifugation, washed twice with phosphate-buffered saline supplemented with 0.02% Tween 20 (PBST) and adjusted photometrically to a transmission of 10% at 600 nm. A total of 0.2 ml of the bacterial suspension was added to 20 μl of ^125I-labelled fibrinogen containing 23 ng of fibrinogen. After incubation for 1 h at room temperature, the streptococci were sedimented by centrifugation and washed with 1 ml of PBST. The radioactivity of the pellet was finally measured in a gamma counter (Packard Instruments). The amount of bacterial-bound fibrinogen was calculated as the percentage of total radiolabelled fibrinogen added to the bacteria. In inhibition experiments, the binding of 23 ng of radiolabelled fibrinogen to 0.2 ml of GBS (T=10%) was determined in the presence of various amounts of FbsA fusion proteins, Bsp fusion protein or synthetic peptides. Each experiment was repeated at least three times in triplicate.

A549 cells [2] = experiment: Epithelial cell adherence and internalization assay of GBS 6313 in presence of proteins; assay type: cell-based, human; conditions: pre-treatment of A549 cells with increasing amounts of protein
Experimental: The adherence of GBS 6313 to A549 cells (A) and its internalization into these cells (B) was arbitrarily set to 100% and the results obtained in the presence of the different fusion proteins was related to these values. Each experiment was performed at least three times in triplicate.
Adherence of GBS to epithelial cells and internalization into epithelial cells was assayed essentially as described previously (Caparon et al., 1991; Rubens et al. 1992). Briefly, A549 cells were transferred to 24-well tissue culture plates at approximately 4×10^5 cells per well and cultivated overnight in RPMI (Gibco BRL) tissue culture medium, supplemented with 10% of fetal calf serum. After replacement of the medium with 1 ml of fresh medium, the cells were infected with 5×10^6 streptococci per well and incubated at 37° C. for 2 h. The non-adherent bacteria were removed by washing three times with PBS. In adherence assays, the epithelial cells were subsequently detached from the well by the addition of trypsin/EDTA and lysed by adding 300 μl of distilled water. Adherent bacteria were quantitated by plating serial dilutions of the lysate onto THY agar plates. For internalization assays the epithelial cells were incubated after 2 h of infection for another 2 h in tissue culture medium supplemented with penicilling G (10 U) and streptomycin (0.01 mg) to kill extracellular bacteria. After three washes with PBS, the epithelial cells were detached by the addition of trypsin/EDTA and lysed in 300 μl of distilled water. The amount of intracellular bacteria was quantified by plating serial dilutions of the lysate onto THY agar plates. Each experiment was repeated at least three times in triplicate. […]
Adherence of S. agalactiae to A549 and HEL299 cells and internalization into these cells was assayed essentially as described in Example 1 for A549 cells. In some experiments, A549 cells were preincubated with different amounts of FbsA protein or FbsA-derived peptides in RPMI medium for 30 min with three subsequent washes with PBS.

A549 cells [3] = experiment: Interaction of protein-coated latex beads with A549 cells (scanning electron microscopy); assay type: cell-based, human
Experimental: BSA-coated latex beads were used as a control.
Latex beads were either coated with BSA (A) or FbsA fusion protein (B-D) and the interaction of the coated beads with the lung epithelial cell line A549 was analyzed by scanning electron microscopy.
Approximately […] latex beads (3 μm diameter, Sigma) were washed tree times in PBS and then coated with 300 μg of fusion protein or BSA in 500 μl PBS overnight at 4° C. Coated beads were washed once in PBS and then blocked with 200 μl of 10 mg/ml BSA in PBS for 1 h at room temperature. Beads were washed twice in PBS and once in RPMI+10% FCS and then resupended in 1 ml of RPMI+10% FCS. 300 μl of beads were added to approximately 4×10^5 A549 cells in 24-well plates. The cells were incubated for 1 h at 37° C. (5% CO2), washed five times with PBS and fixed in a solution containing 3% glutaraldehyde and 5% formaldehyde in cacodylate bluffer for 45 min on ice. The samples were washed with cacodylate buffer, dehydrated in a graded series of acetone and subjected to critical point drying with CO2. Samples were then coated with a 10 nm thick gold film and examined by scanning electron microscopy as described previously (Reinscheid et al., 2001a).
Approximately 1×10^9 latex beads (3 μm diameter, Sigma) were washed three times in 25 mM 2-N-morpholinoethanesulfonic acid (MES), pH 6.8. One half was resuspended in 1.0 ml MES buffer containing 500 μg/ml FbsA fusion protein and the remaining half was resuspended in 1.0 ml MES buffer. The beads were incubated overnight at 4° C. with end-over-end rotation. After pelleting of the beads by centrifugation, the amount of remaining protein in the supernatant was determined with a Bradford protein assay kit (BioRad). The beads were washed once with MES buffer and blocked for 1 h with 10 mg/ml BSA in MES buffer at room temperature. The beads were washed twice with MES buffer, once with RPMI+10% FCS, and resuspended in RPMI+10% FCS. Confluent A549 cells in 24-well plates were inoculated with 2×10^8 beads per well in a total volume of 1.0 ml. The bead monolayer mixtures were incubated for 2 h at 37° C. in a 5% CO2 atmosphere. Cells were washed five times with PBS and fixed with 3% paraformaldehyde and 4% glutaraldehyde in […] cacodylate buffer for scanning electron microscopy. Scanning electron microscopy was performed with a Zeiss DSM 962 microscope.

T1 sequence (P02675 31-491): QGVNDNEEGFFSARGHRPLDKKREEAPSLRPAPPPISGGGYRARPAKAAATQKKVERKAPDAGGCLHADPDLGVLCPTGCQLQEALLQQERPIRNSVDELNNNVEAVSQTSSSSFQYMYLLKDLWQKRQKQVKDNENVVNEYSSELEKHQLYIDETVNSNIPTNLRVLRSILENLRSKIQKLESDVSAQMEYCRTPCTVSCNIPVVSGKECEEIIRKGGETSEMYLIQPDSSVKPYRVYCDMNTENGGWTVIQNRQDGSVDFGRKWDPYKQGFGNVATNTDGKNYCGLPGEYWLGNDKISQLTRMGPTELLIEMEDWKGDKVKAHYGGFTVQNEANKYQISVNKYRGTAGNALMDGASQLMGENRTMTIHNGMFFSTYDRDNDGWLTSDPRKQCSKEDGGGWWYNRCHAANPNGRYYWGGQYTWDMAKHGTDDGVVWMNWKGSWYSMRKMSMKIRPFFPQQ
T1 sequence (P02679 27-433): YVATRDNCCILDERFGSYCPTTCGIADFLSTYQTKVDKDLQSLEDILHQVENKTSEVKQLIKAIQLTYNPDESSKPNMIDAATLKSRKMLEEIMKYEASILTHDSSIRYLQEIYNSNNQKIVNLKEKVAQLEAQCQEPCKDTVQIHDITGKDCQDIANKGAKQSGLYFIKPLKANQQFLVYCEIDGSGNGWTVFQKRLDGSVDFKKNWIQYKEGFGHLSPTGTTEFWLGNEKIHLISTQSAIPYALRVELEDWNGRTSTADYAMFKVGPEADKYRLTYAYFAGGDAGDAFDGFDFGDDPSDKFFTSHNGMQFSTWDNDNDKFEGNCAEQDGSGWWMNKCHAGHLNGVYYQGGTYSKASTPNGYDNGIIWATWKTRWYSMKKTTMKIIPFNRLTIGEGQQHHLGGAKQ
T1 sequence (P02671 20-629): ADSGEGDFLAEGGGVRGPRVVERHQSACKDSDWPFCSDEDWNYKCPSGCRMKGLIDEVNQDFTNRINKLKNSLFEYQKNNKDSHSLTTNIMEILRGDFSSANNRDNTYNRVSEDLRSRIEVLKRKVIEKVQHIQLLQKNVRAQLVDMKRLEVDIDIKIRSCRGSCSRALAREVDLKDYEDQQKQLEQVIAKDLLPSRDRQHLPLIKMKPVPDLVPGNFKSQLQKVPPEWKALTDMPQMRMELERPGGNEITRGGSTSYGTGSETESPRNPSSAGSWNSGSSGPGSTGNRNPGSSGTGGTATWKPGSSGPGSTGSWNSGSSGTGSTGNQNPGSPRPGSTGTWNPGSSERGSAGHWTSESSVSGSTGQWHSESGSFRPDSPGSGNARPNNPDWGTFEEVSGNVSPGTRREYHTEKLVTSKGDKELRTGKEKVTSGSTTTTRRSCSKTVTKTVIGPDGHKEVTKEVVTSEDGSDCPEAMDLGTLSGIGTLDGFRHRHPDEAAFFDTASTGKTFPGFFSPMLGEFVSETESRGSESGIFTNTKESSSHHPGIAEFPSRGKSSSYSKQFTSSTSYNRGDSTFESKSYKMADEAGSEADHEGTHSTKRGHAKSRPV

Molecule | reactivity of biotinylated peptides with IgA and IgG antibodies of patient sera [1] | fibrinogen binding in Western blot (human fibrinogen) | inhibition of binding of 125I-labelled fibrinogen to GBS 6313 (GBS 6313) | adherence of S. agalactiae 6313 to A549 cells after pre-treatment of the cells (A549 cells [2]) | invasion of A549 cells by S. agalactiae 6313 after pre-treatment of the cells (A549 cells [2]) | binding of protein-coated latex beads to A549 cells (A549 cells [3]) | internalization of protein-coated latex beads into A549 cells (A549 cells [3])
GNVLERRQRDAENRSQ ({Biotin-Ahx}-GNVLERRQRDAENRSQ-NH2; SMILES CC(C)C[C@H](NC(=O)[C@@H](NC(=O)[C@H](CC(N)=O)NC(=O)CNC(=O)CCCCCNC(=O)CCCC[C@@H]1SC[C@@H]2NC(=O)N[C@@H]21)C(C)C)C(=O)N[C@@H](CCC(=O)O)C(=O)N[C@@H](CCCNC(=N)N)C(=O)N[C@@H](CCCNC(=N)N)C(=O)N[C@@H](CCC(N)=O)C(=O)N[C@@H](CCCNC(=N)N)C(=O)N[C@@H](CC(=O)O)C(=O)N[C@@H](C)C(=O)N[C@@H](CCC(=O)O)C(=O)N[C@@H](CC(N)=O)C(=O)N[C@@H](CCCNC(=N)N)C(=O)N[C@@H](CO)C(=O)N[C@@H](CCC(N)=O)C(N)=O; listed as Streptococcus agalactiae) [wild type peptide] | less well recognized by all sera |  |  |  |  |  | 
GNVLERAQRDAENRSQ ({Biotin-Ahx}-GNVLERAQRDAENRSQ-NH2; SMILES CC(C)C[C@H](NC(=O)[C@@H](NC(=O)[C@H](CC(N)=O)NC(=O)CNC(=O)CCCCCNC(=O)CCCC[C@@H]1SC[C@@H]2NC(=O)N[C@@H]21)C(C)C)C(=O)N[C@@H](CCC(=O)O)C(=O)N[C@@H](CCCNC(=N)N)C(=O)N[C@@H](C)C(=O)N[C@@H](CCC(N)=O)C(=O)N[C@@H](CCCNC(=N)N)C(=O)N[C@@H](CC(=O)O)C(=O)N[C@@H](C)C(=O)N[C@@H](CCC(=O)O)C(=O)N[C@@H](CC(N)=O)C(=O)N[C@@H](CCCNC(=N)N)C(=O)N[C@@H](CO)C(=O)N[C@@H](CCC(N)=O)C(N)=O) [peptide 5] | less well recognized by all sera |  |  |  |  |  | 
FbsA-19: hexahistidyl-tagged FbsA protein from S. agalactiae 6313 with 19 repeats, devoid of signal peptide and membrane-spanning region (protein, left off: small tags and cut ends, hexahistidyl-tagged FbsA protein from S. agalactiae 6313 with 19 repeats, devoid of signal peptide and membrane-spanning region) MDSVGNQSQGNVLERRQRDAENRSQGNVLERRQRDVENKSQGNVLERRQRDAENKSQGNVLERRQRDAENRSQGNVLERRQRDAENRSQGNVLERRQRDAENRSQGNVLERRQRDAENRSQGNVLERRQRDAENRSQGNVLERRQRDVENKSQGNVLERRQRDAENKSQGNVLERRQRDAENRSQGNVLERRQRDAENRSQGNVLERRQRDAENRSQGNVLERRQRDAENRSQGNVLERRQRDAENRSQGNVLERRQRDAENRSQGNVLERRQRDAENRSQGNVLERRQRDAENRSQGNVLERRQRDAENKSQVGQLIGKNPLLSKSIISRENNHSSQGDSNKQSFSKKVSQVTNVANRPMLTNNSRTISVINKLPKTGDDQNV |  | binding to human fibrinogen | substantially inhibited | substantially inhibited | substantially inhibited | in high numbers | observed rather rarely
